This is an account of results in paper PMC7335789, “Bifurcated binding of the OmpF receptor underpins import of the bacteriocin colicin N into Escherichia coli” (The Journal of Biological Chemistry, 2020).

Ends that are not written are not given here.

T1: OmpF on E. coli cells (E. coli (endogenous in JW2203-1, …, UniProt P02931 23-362))
T1 sequence (looked up): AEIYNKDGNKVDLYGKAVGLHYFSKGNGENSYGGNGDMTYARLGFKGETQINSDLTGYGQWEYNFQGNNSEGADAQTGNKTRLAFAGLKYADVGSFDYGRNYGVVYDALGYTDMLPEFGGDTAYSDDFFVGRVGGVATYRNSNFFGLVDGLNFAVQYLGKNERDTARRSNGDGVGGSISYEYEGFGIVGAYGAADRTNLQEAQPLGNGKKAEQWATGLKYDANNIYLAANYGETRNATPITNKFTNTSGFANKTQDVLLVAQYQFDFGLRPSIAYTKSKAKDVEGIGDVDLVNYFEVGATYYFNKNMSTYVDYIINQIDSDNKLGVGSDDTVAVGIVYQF

B1: ColN^91-185 (ColN central domain) (domain or fragment)
chain: SAKVGEITITPDNSKPGRYISSNPEYSLLAKLIDAESIKGTEVYTFHTRKGQYVKVTVPDSNIDKMRVDYVNWKGPKYNNKLVKRFVSQFLLFRK
notes: also called ColN-R
B2: ColN^2-19 peptide (peptide)
peptide: GSNGADNAHNNAFGGGKN-NH2
notes: also called ColN-OBS; ColN OBS; source: synthetic peptide, bought: Activotec
B3: OmpF (natural protein, E. coli (endogenous in B^E3000), UniProt P02931 23-362, looked up)
chain: T1 sequence (looked up)
notes: also called OmpF trimer; purified OmpF lacking LPS
B4: ColN^1-185 (ColN without the pore forming domain) (domain or fragment)
chain: MGSNGADNAHNNAFGGGKNPGIGNTSGAGSNGSASSNRGNSNGWSWSNKPHKNDGFHSDGSYHITFHGDNNSKPKPGGNSGNRGNNGDGASAKVGEITITPDNSKPGRYISSNPEYSLLAKLIDAESIKGTEVYTFHTRKGQYVKVTVPDSNIDKMRVDYVNWKGPKYNNKLVKRFVSQFLLFRK
B5: ColN^1-185-mCherry (domain or fragment)
chain: B4 chain
notes: also called fluorescently labeled ColN

The target of data set [1] is B3. As to the kind of experiment: ITC; MicroCal ITC200, 25 C, 20 mM potassium phosphate pH 6.5, 1% beta-OG; purified OmpF trimer without LPS in the cell, ColN construct or peptide in the syringe. Particulars: both partners purified.
Data set [2] deals with the molecule itself. As to the kind of experiment: native MS; 10 uM OmpF and 10 uM ColN in 100 mM ammonium acetate pH 6.9, 1% beta-OG, trypsin 37 C 2 h, gel filtration, OmpF fractions analysed in 200 mM ammonium acetate, 1% beta-OG.
The target of data set [3] is B3. Put plainly: ITC. To be noted: one partner purified.
A further data set concerns the target T1, OmpF on E. coli cells. As to the kind of experiment: widefield fluorescence microscopy of labelled cells. Particulars: one partner purified.

With B1, in the data set with OmpF [1], binding was put at a Kd of 14000 nM, the dH is -3.8 kcal/mol and the “stoichiometry N” value was 3.82 ColN^90-185/OmpF.
The like results for B2 were, in that order, 1400 nM, -17.9 kcal/mol and 3.67 peptide/OmpF.
As for B3, in data set [2], the “stoichiometry N” value was determined as 3.
Consider B4, for which, in the data set with OmpF [1], binding was put at a Kd of 214 nM, the dH was -27.7 kcal/mol and the “stoichiometry N” value came out at 2.69 ColN^2-185/OmpF. Besides, in the data set with OmpF [3], the Kd came to 119 nM and the dH is -38.8 kcal/mol.
On to B5, for which the “binding to cells with OmpF and OmpC (BW25113) relative to OmpF-only cells” value with OmpF on E. coli cells was roughly 0.5 fold.
